63 sequences from the supplement of paper PMC7877785 can be followed below.

± gives the uncertainty stated by the source.

The data set in a line: self-splicing fitness, log relative to wild type (ln ratio); higher = more splicing; Tetrahymena group I intron in knt gene, E. coli kanamycin selection, DiMSum; sequences stand for … in CUCUCU…GGAGGGAAAAGUUAUCAGGCAUGCACCUGGUAGCUAGUCUUUAAACCAAUAGAUUGCAUCGGUUUAAAAGGCAAGACCGUCAAAUUGCGGGAAAGGGGUCAACAGCCGUUCAGUACCAAGUCUCAGGGGAAACUUUGAGAUGGCCUUGCAAAGGGUAUGGUAAUAAGCUGACGGACAUGGUCCUAACCACGCAGCCAAGUCCUAAGUCAACAGAUCUUCUGUUGAUAUGGAUGCAGUUCACAGACUAAAUGUCGGUCGGGGAAGAUGUAUUCUUCUCAUAAGAUAUAGUCGGACCUCUCCUUAAUGGGAGCUAGCGGAUGAAGUGAUGCAACACUGGAGCCGCUGGGAACUAAUUUGUAUGCGAAAGUAUAUUGAUUAGUUUUGGAGUACUCGUGGUCG
The gist of the method: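 Library with all eight P1ex-region intron nucleotides randomised, intron inside the knt kanamycin-resistance gene on pET-22b(+), in E. coli BL21(DE3). Cells grew overnight at 37°C or 30°C on LB agar with or without 25 μg/mL kanamycin (plus 100 μg/mL carbenicillin, 50 μM IPTG, 0.2% rhamnose), in six replicate transformations. Pooled colonies were amplicon-sequenced on Illumina HiSeq 2500. DiMSum fitness is the error-weighted combination of wild-type-normalised replicate fold changes, kanamycin versus none.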

Turning to UCAAAGCAAUAUUACGUCUC, the “self-splicing fitness (ln)” value runs as follows: (30 °C) -4.01 ± 0.36; (37 °C) -1.5 ± 0.19.

With UCAAAGCAAUAUUACGUGGG, the “self-splicing fitness (ln)” value runs as follows: (30 °C) -2.85 ± 0.098; (37 °C) -2.17 ± 0.12.

On to UCAAAGCAAUAUUACGUUCC, for which the “self-splicing fitness (ln)” value (30 °C) is -2.89 ± 0.38.

For the sequence UCACAGCAAUAUUACGAAAA, the “self-splicing fitness (ln)” value was -3 ± 0.31 (30 °C) and -1.27 ± 0.17 (37 °C).

As to UCACAGCAAUAUUACGAAGU, the “self-splicing fitness (ln)” value reads like this: (30 °C) -2.55 ± 0.22; (37 °C) -3.34 ± 0.31.

On to UCACAGCAAUAUUACGACGA, for which the “self-splicing fitness (ln)” value is, setting by setting: (30 °C) -0.431 ± 0.071; (37 °C) -0.228 ± 0.073.

On to UCACAGCAAUAUUACGAUGC, for which the “self-splicing fitness (ln)” value runs as follows: (30 °C) -3.33 ± 0.17; (37 °C) -1.26 ± 0.13.

In the case of UCACAGCAAUAUUACGAUGG, the “self-splicing fitness (ln)” value is, setting by setting: (30 °C) -1.52 ± 0.06; (37 °C) -0.512 ± 0.081.

As to UCACAGCAAUAUUACGCGCU, the “self-splicing fitness (ln)” value was -3.85 ± 0.21 (30 °C) and -1.78 ± 0.16 (37 °C).

In the case of UCACAGCAAUAUUACGCUAG, the “self-splicing fitness (ln)” value runs as follows: (30 °C) -2.91 ± 0.13; (37 °C) -1.49 ± 0.12.

For the sequence UCACAGCAAUAUUACGCUCC, the “self-splicing fitness (ln)” value reads like this: (30 °C) -2.21 ± 0.27; (37 °C) -1.51 ± 0.37.

Turning to UCACAGCAAUAUUACGCUUA, the “self-splicing fitness (ln)” value is -1.66 ± 0.15 (30 °C) and -0.902 ± 0.12 (37 °C).

For UCACAGCAAUAUUACGGAUU, the “self-splicing fitness (ln)” value reads like this: (30 °C) -4.45 ± 0.13; (37 °C) -2.38 ± 0.096.

For UCACAGCAAUAUUACGGCGC, the “self-splicing fitness (ln)” value is -2.08 ± 0.1 (30 °C) and -1.02 ± 0.12 (37 °C).

In the case of UCACAGCAAUAUUACGGGUC, the “self-splicing fitness (ln)” value reads like this: (30 °C) -3.67 ± 0.16; (37 °C) -2.79 ± 0.14.

With UCACAGCAAUAUUACGGUGA, the “self-splicing fitness (ln)” value is, setting by setting: (30 °C) -3.99 ± 0.33; (37 °C) -2.77 ± 0.21.

In the case of UCACAGCAAUAUUACGGUGG, the “self-splicing fitness (ln)” value reads like this: (30 °C) -3.45 ± 0.14; (37 °C) -2.71 ± 0.18.

Consider UCACAGCAAUAUUACGGUUC, for which the “self-splicing fitness (ln)” value is, setting by setting: (30 °C) -2.91 ± 0.11; (37 °C) -2.7 ± 0.19.

With UCACAGCAAUAUUACGGUUG, the “self-splicing fitness (ln)” value is -1.41 ± 0.087 (30 °C) and -0.981 ± 0.11 (37 °C).

On to UCACAGCAAUAUUACGUAAG, for which the “self-splicing fitness (ln)” value was -1.98 ± 0.083 (30 °C) and -1.33 ± 0.1 (37 °C).

With UCACAGCAAUAUUACGUACC, the “self-splicing fitness (ln)” value was -2.45 ± 0.23 (30 °C) and -2.37 ± 0.23 (37 °C).

UCACAGCAAUAUUACGUGGG: the “self-splicing fitness (ln)” value is, setting by setting: (30 °C) -3.34 ± 0.12; (37 °C) -2.68 ± 0.12.

Turning to UCACAGCAAUAUUACGUGUU, the “self-splicing fitness (ln)” value reads like this: (30 °C) -3.9 ± 0.13; (37 °C) -2.46 ± 0.11.

On to UCACAGCAAUAUUACGUUCA, for which the “self-splicing fitness (ln)” value (30 °C) was -0.499 ± 0.074 and the “self-splicing fitness (ln)” value (37 °C) was -0.438 ± 0.078.

As for UCACAGCAAUAUUACGUUGC, the “self-splicing fitness (ln)” value by setting is: (30 °C) -4.42 ± 0.23; (37 °C) -2.95 ± 0.23.

As for UCACAGCAAUAUUACGUUGU, the “self-splicing fitness (ln)” value was -4.29 ± 0.18 (30 °C) and -2.14 ± 0.12 (37 °C).

Take UCAGAGCAAUAUUACGAAAA: the “self-splicing fitness (ln)” value (37 °C) was -2.13 ± 0.48.

UCAGAGCAAUAUUACGACCU: the “self-splicing fitness (ln)” value (30 °C) was -2.87 ± 0.36.

Consider UCAGAGCAAUAUUACGAGCG, for which the “self-splicing fitness (ln)” value was -4.27 ± 0.36 (30 °C) and -1.23 ± 0.14 (37 °C).

As to UCAGAGCAAUAUUACGAGGC, the “self-splicing fitness (ln)” value (30 °C) was -1.74 ± 0.43.

In the case of UCAGAGCAAUAUUACGAUGA, the “self-splicing fitness (ln)” value is -0.825 ± 0.2 (30 °C) and 0.109 ± 0.21 (37 °C).

For the sequence UCAGAGCAAUAUUACGAUUG, the “self-splicing fitness (ln)” value by setting is: (30 °C) -4 ± 0.37; (37 °C) -2.41 ± 0.24.

On to UCAGAGCAAUAUUACGCAAC, for which the “self-splicing fitness (ln)” value by setting is: (30 °C) -3.8 ± 0.48; (37 °C) -1.91 ± 0.29.

Regarding UCAGAGCAAUAUUACGCACU, the “self-splicing fitness (ln)” value was -2.95 ± 0.44 (30 °C) and -2.62 ± 0.48 (37 °C).

On to UCAGAGCAAUAUUACGCGCA, for which the “self-splicing fitness (ln)” value is -1.19 ± 0.2 (30 °C) and -1.69 ± 0.29 (37 °C).

As to UCAGAGCAAUAUUACGCGGG, the “self-splicing fitness (ln)” value by setting is: (30 °C) -2.22 ± 0.14; (37 °C) -1.99 ± 0.23.

As to UCAGAGCAAUAUUACGCGUC, for the setting “30 °C”, the “self-splicing fitness (ln)” value was -2.62 ± 0.18.

Regarding UCAGAGCAAUAUUACGCUUU, the “self-splicing fitness (ln)” value is, setting by setting: (30 °C) -2.7 ± 0.32; (37 °C) -2.84 ± 0.48.

On to UCAGAGCAAUAUUACGGCUU, for which the “self-splicing fitness (ln)” value was -3.38 ± 0.34 (30 °C) and -2.19 ± 0.35 (37 °C).

As to UCAGAGCAAUAUUACGGGAU, the “self-splicing fitness (ln)” value (30 °C) was -3.39 ± 0.47 and the “self-splicing fitness (ln)” value (37 °C) is -2.58 ± 0.48.

On to UCAGAGCAAUAUUACGGGGA, for which the “self-splicing fitness (ln)” value (30 °C) is -1.48 ± 0.11 and the “self-splicing fitness (ln)” value (37 °C) is -1.1 ± 0.13.

Take UCAGAGCAAUAUUACGGGUG: the “self-splicing fitness (ln)” value runs as follows: (30 °C) -3.2 ± 0.2; (37 °C) -1.46 ± 0.14.

With UCAGAGCAAUAUUACGGUAC, the “self-splicing fitness (ln)” value (30 °C) is -2.06 ± 0.3.

For the sequence UCAGAGCAAUAUUACGGUCC, the “self-splicing fitness (ln)” value (30 °C) is -2.18 ± 0.24.

On to UCAGAGCAAUAUUACGGUGA, for which the “self-splicing fitness (ln)” value was -0.792 ± 0.084 (30 °C) and -0.193 ± 0.1 (37 °C).

As to UCAGAGCAAUAUUACGUACC, the “self-splicing fitness (ln)” value is -3.69 ± 0.25 (30 °C) and -1.59 ± 0.37 (37 °C).

As to UCAGAGCAAUAUUACGUAUC, the “self-splicing fitness (ln)” value was -2.86 ± 0.36 (30 °C) and -1.41 ± 0.31 (37 °C).

For the sequence UCAGAGCAAUAUUACGUCCG, the “self-splicing fitness (ln)” value by setting is: (30 °C) -2.17 ± 0.2; (37 °C) -1.14 ± 0.25.

For the sequence UCAGAGCAAUAUUACGUGAA, the “self-splicing fitness (ln)” value by setting is: (30 °C) -2.01 ± 0.15; (37 °C) -1.2 ± 0.21.

Regarding UCAGAGCAAUAUUACGUGAC, the “self-splicing fitness (ln)” value was -3.69 ± 0.28 (30 °C) and -1.9 ± 0.23 (37 °C).

In the case of UCAUAGCAAUAUUACGCAUU, the “self-splicing fitness (ln)” value reads like this: (30 °C) -2.86 ± 0.14; (37 °C) -3.04 ± 0.22.

Turning to UCAUAGCAAUAUUACGCCUU, the “self-splicing fitness (ln)” value is -3.75 ± 0.4 (30 °C) and -1.52 ± 0.33 (37 °C).

As for UCAUAGCAAUAUUACGCGUG, the “self-splicing fitness (ln)” value reads like this: (30 °C) -2.85 ± 0.12; (37 °C) -1.67 ± 0.11.

As for UCAUAGCAAUAUUACGCGUU, the “self-splicing fitness (ln)” value was -3.38 ± 0.27 (30 °C) and -3.03 ± 0.27 (37 °C).

Consider UCAUAGCAAUAUUACGCUUC, for which the “self-splicing fitness (ln)” value (37 °C) was -2.26 ± 0.23.

With UCAUAGCAAUAUUACGGGGG, the “self-splicing fitness (ln)” value runs as follows: (30 °C) -2.69 ± 0.19; (37 °C) -2.27 ± 0.21.

With UCAUAGCAAUAUUACGGGUC, the “self-splicing fitness (ln)” value reads like this: (30 °C) -2.94 ± 0.42; (37 °C) -2.9 ± 0.35.

For the sequence UCAUAGCAAUAUUACGUAGA, the “self-splicing fitness (ln)” value was -1.88 ± 0.097 (30 °C) and -1.8 ± 0.12 (37 °C).

In the case of UCAUAGCAAUAUUACGUCAU, the “self-splicing fitness (ln)” value is -2.74 ± 0.29 (30 °C) and -3.16 ± 0.27 (37 °C).

Regarding UCAUAGCAAUAUUACGUCUC, for the setting “30 °C”, the “self-splicing fitness (ln)” value is -1.43 ± 0.32.

UCAUAGCAAUAUUACGUGAU: the “self-splicing fitness (ln)” value is, setting by setting: (30 °C) -3.82 ± 0.17; (37 °C) -2.62 ± 0.2.

In the case of UCAUAGCAAUAUUACGUGCG, the “self-splicing fitness (ln)” value was -1.26 ± 0.11 (30 °C) and -0.279 ± 0.1 (37 °C).

UCAUAGCAAUAUUACGUGGC: under “37 °C”, the “self-splicing fitness (ln)” value was -2.73 ± 0.43.
